{
  "source": "patent US20160053258",
  "key": {"[1]": {"target": "T1, 6×HIS-LIN28A (125-156), Q9H9Z2", "T1 chain": "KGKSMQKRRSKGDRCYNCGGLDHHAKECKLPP"}, "[2]": {"target": "T2, 6×HIS-labeled human LIN28A (full-length), Q9H9Z2", "T2 chain": "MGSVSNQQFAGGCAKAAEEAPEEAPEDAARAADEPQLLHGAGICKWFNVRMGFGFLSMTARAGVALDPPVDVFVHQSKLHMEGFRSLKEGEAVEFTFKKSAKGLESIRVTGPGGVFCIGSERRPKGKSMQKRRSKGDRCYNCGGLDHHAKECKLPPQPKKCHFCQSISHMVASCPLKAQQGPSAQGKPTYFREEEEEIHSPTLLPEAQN"}, "[3]": {"target": "T3, full-length 6×HIS-LIN28B, Q6ZN17", "T3 chain": "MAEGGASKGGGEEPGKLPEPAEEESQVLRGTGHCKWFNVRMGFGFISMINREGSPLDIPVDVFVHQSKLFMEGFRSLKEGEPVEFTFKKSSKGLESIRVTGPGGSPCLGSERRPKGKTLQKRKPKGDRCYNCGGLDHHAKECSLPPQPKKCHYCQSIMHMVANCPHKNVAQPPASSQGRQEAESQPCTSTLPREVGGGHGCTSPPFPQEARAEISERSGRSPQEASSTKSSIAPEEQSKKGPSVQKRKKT"}, "[4]": {"target": "T4, 6×HIS-LIN28A (157-209), Q9H9Z2", "T4 chain": "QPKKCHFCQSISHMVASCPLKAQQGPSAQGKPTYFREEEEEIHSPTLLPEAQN"}, "[5]": {"target": "T5, 6×HIS-LIN28A-K135R, Q9H9Z2", "T5 chain": "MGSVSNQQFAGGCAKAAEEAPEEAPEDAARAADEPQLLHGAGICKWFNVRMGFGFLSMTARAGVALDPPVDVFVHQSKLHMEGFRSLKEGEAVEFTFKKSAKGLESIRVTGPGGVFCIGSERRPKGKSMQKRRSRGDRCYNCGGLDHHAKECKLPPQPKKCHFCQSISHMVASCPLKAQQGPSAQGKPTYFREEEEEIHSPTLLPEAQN"}, "[6]": {"target": "T6, 6×HIS-LIN28A (1-124), Q9H9Z2", "T6 chain": "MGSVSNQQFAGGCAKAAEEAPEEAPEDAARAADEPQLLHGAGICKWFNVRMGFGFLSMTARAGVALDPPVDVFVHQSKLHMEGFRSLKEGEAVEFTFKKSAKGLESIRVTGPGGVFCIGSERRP"}, "[7]": {"target": "T7, 6×HIS-LIN28A (125-209), Q9H9Z2", "T7 chain": "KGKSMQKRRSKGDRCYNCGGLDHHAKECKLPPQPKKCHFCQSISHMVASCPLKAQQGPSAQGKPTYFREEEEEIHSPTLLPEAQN"}},
  "data": [
    {"protein": "recombinant full-length SET7/9 expressed in bacteria (protein) MDSDDEMVEEAVEGHLDDDGLPHGFCTVTYSSTDRFEGNFVHGEKNGRGKFFFFDGSTLEGYYVDDALQGQGVYTYEDGGVLQGTYVDGELNGPAQEYDTDGRLIFKGQYKDNIRHGVCWIYYPDGGSLVGEVNEDGEMTGEKIAYVYPDERTALYGKFIDGEMIEGKLATLMSTEEGRPHFELMPGNSVYHFDKSTSSCISTNALLPDPYESERVYVAESLISSAGEGLFSKVAVGPNTVMSFYNGVRITHQEVDSRDWALNGNTLSLDEETVIDVPEPYNHVSKYCASLGHKANHSFTPNCIYDMFVHPRFGPIKCIRTLRAVEADEELTVAYGYDHSPPGKSGPEAPEWYQVELKAFQATQQK", "values": [
      {"measurement": "methylation (in vitro methyl transferase assay)", "setting": "[1]", "result": "only LIN28A (125-209) and (125-156) having lysine 135 among 4 fragments were methylated by SET7/9"},
      {"measurement": "enzyme activity (in vitro methyltransferase assay with [3H] SAM)", "setting": "[2]", "result": "all HMTases except for SET7/9 did not show enzyme activity with respect to LIN28A"},
      {"measurement": "methylation (in vitro methyltransferase assay with [3H] SAM)", "setting": "[2]", "result": "LIN28A was methylated by SET7/9 in vitro"},
      {"measurement": "methylation (in vitro methyl transferase analysis)", "setting": "[3]", "result": "LIN28B was not methylated by SET7/9"},
      {"measurement": "methylation (in vitro methyl transferase assay)", "setting": "[4]", "result": "LIN28A (1-124) and (157-209) without lysine 135 were not methylated"},
      {"measurement": "methylation (in vitro methyl transferase assay)", "setting": "[5]", "result": "a methylation reaction by SET7/9 was completely removed in K135 mutant"},
      {"measurement": "methylation (in vitro methyl transferase assay)", "setting": "[6]", "result": "LIN28A (1-124) and (157-209) without lysine 135 were not methylated"},
      {"measurement": "methylation (in vitro methyl transferase assay)", "setting": "[7]", "result": "only LIN28A (125-209) and (125-156) having lysine 135 among 4 fragments were methylated by SET7/9"}
    ]}
  ]
}
